The results in this text go back to article PMC10184827.

Experiment [1] deals with rabbit muscle actin (RMA; α-actin) (rabbit) (UniProt P68135).
For experiment [2], the target named is human γ-actin (γ1-actin, cytoplasmic actin, ACTG1) purified from budding yeast (human) (UniProt P63261).
The target of experiment [3] is human β-actin (cytoplasmic actin, ACTB) purified from budding yeast (human) (UniProt P60709).
The target of experiment [4] is rabbit muscle actin (RMA; α-actin) (rabbit) (UniProt P68135). Put plainly: TIRF microscopy of single filament polymerization; 1 µM total actin monomers with 10% fluorescently labeled RMA; TIRF buffer (20 mM imidazole pH 7.4, 50 mM KCl, 1 mM MgCl2, 1 mM EGTA, 0.2 mM ATP, 10 mM DTT, 40 mM glucose, 0.25% methylcellulose); monomer addition to growing filaments.

mDia1(FH1-C) (amino acids 571–1255), sequence (O08808 571-1255): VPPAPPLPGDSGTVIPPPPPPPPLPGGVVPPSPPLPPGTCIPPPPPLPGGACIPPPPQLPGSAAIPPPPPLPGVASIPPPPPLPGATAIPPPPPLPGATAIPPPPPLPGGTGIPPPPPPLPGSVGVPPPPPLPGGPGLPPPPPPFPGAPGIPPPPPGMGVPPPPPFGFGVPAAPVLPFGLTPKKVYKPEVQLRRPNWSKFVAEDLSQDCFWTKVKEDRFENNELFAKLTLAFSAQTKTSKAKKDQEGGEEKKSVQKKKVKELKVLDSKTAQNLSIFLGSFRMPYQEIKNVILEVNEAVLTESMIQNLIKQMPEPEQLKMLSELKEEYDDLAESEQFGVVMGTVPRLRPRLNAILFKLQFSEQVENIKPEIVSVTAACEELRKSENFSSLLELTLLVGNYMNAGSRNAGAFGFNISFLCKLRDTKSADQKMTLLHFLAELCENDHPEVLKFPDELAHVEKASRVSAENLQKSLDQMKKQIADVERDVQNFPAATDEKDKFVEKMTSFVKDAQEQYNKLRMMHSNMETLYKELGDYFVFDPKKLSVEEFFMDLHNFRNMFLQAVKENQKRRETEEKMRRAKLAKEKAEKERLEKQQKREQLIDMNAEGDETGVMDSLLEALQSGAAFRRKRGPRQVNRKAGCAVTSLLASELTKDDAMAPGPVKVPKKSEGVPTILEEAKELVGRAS

As for “mDia1(FH1-C) (amino acids 571–1255) (from UniProt O08808 571-1255) (domain or fragment)”, the actin filament elongation rate by TIRF microscopy, 1 µM actin with 2 µM PFN1 and 10 nM mDia1(FH1-C) (subunits s^−1 µM^−1) was found to be 73.6 in experiment [1], 61.2 in experiment [2] and 59.3 in experiment [3].

“rabbit muscle actin (RMA; α-actin) (from UniProt P68135 1-377) (natural protein)” yielded a filament elongation rate (subunits s^−1 µM^−1) in experiment [4] of 10.
